No end group written: not given here.

Test [1] concerns the target T1, rat MUC5AC glycoprotein purified from rat stomach (rat).
T1 construct: Native glycoprotein purified from tissue; also called murine (rat) gastric MUC5AC
Put plainly: ELISA; MUC5AC purified from rat stomach immobilized, biotinylated peptide; apparent Kd. On the procedure:
(§1) The interaction between the peptide and MUC5AC is evaluated by means of an ELISA assay. The mucin MUC5AC (purified from pieces of human tumor on the basis of mucin extraction and purification protocols described in literature) is immobilized on a plate at the concentration of 12.5 μg/ml overnight at 4° C. The nonspecific sites are then saturated in a buffer enriched with milk, for 2 hours at 4° C. After several rinses, the peptide […] coupled to biotin is incubated at increasing concentrations (10⁻³M and 10⁻⁶M) for 2 hours at 37° C. The biotinylated peptides bound to MUC5AC are visualized using goat anti-biotin antibodies incubated for one hour at ambient temperature and then diluted in PBS at 1 μg/ml. After removal of the unbound antibodies, a second incubation for one hour at ambient temperature is carried out in the presence of peroxidase-labeled anti-goat antibodies at 0.2 μg/ml, diluted in PBS supplemented with 0.1% of Tween-20. The peroxidase coloration reaction is carried out in the presence of H₂O₂-enriched ABTS. The measurement of the OD at 405 nm makes it possible to calculate the K*d MUC5AC value.
(§2) The interaction between the peptide and MUC5AC is also evaluated by means of the previously described ELISA assay on the mucin MUC5AC purified beforehand from mouse and rat stomach.
For orientation: ELISA stands for enzyme-linked immunosorbent assay.

The target of test [2] is T2, mouse MUC5AC glycoprotein purified from mouse stomach (mouse).
T2 construct: Native glycoprotein purified from tissue; Also used here as the target for the in vivo mouse stomach signal (MUC5AC in situ); also called murine (mouse) gastric MUC5AC
Put plainly: ELISA; MUC5AC purified from mouse stomach immobilized, biotinylated peptide; apparent Kd. As for the experimental part:
as §1, §2

In test [3] the target is T3, native MUC5AC secreted by HT29-5M21 human colonic adenocarcinoma cells (human, UniProt P98088 28-5654, O-glycosylated mucin).
T3 construct: whole, on cells; A secreted mucin on the cell layer, not a membrane protein; also called MUC5AC cells; MUC5AC directly after secretion on secretory human adenocarcinoma cells
Nature of the test: cell ELISA on HT29 5M21 cells secreting MUC5AC, biotinylated peptide, OD 405 nm; apparent Kd. As for the experimental part: The affinity of the peptide for MUC5AC is calculated from a functional cell assay which consists in measuring the binding of the peptide on a cell model secreting MUC5AC. After 21 days of culture for HT29-5M21 cells and 7 days for HCT116 cells, the cells are rinsed with PBS at 4° C., and then fixed with 1% glutaraldehyde diluted in PBS. The cells are then rinsed again 3 times with PBS at 4° C. and incubated for 2H at ambient temperature with a milk-enriched buffer and for 2H at 37° C. in a concentration range of between 10⁻³M and 10⁻⁶M of biotinylated peptides. The biotinylated peptides bound to the target are visualized using goat anti-biotin antibodies incubated for one hour at ambient temperature (diluted in PBS to 1 μg/ml). A second incubation for one hour at ambient temperature is carried out in the presence of peroxidase-labeled anti-goat antibodies at 0.2 μg/ml, diluted in PBS supplemented with 0.1% of Tween-20. The peroxidase coloration reaction is carried out in the presence of ABTS and the OD measurement is carried out at 405 nm. The cell assay has the advantage of showing affinity data, although its sensitivity can still be improved. The secretion of MUC5AC was indeed verified in the study. The results on human tissues (affinity curve for human MUC5AC also obtained) give very positive results. […]

Test [4] addresses T4, human MUC5AC mucin purified from pieces of human tumor (human, UniProt P98088 28-5654, limits assumed, O-glycosylated mucin).
T4 construct: Native glycoprotein purified from tissue and immobilized on an ELISA plate at 12.5 ug/ml; Also used here as the target for labelling of human tissue sections (MUC5AC in situ); also called human colonic MUC5AC; purified MUC5AC
Nature of the test: ELISA; purified human MUC5AC immobilized, biotinylated peptide at increasing concentrations, OD 405 nm; apparent Kd. On the procedure: as §1

A further test deals with T5, MUC2 glycoprotein (human, UniProt Q02817 21-5289, limits assumed, O-glycosylated mucin).
T5 construct: Present in situ in fixed, paraffin-embedded tissue sections; also called major mucin of the intestine
Put plainly: histological labelling of human colonic adenoma sections with biotinylated peptide, compared with anti-MUC2 antibody labelling. On the procedure:
Sections of healthy gastric and colonic mucosae and of human colorectal adenoma (5 μm thick) were fixed for 24 h with 4% paraformaldehyde and embedded in paraffin. For the labeling, the sections were first of all deparaffinized in toluene and rehydrateted in 95% alcohol. After rinsing in water, the slides are brought to boiling for 10 minutes in a citrate buffer (50 mM, pH 4). Once the temperature of the buffer has returned to 25-30° C., the slides are then rinsed with PBS and then successively incubated for 15 minutes in a 0.15% hydrogen peroxide (H₂O₂) solution and a kit for blocking the endogenous biotin for 1 h. The sections are then blocked using a milk-enriched buffer for 1 h at ambient temperature, and are then incubated at 4° C. for 18 h with the peptides at various concentrations (20 μM, 10 μM, 1 μM, 0.2 μM, 0.04 μM) or the antibodies (MUC5AC: PM8 at a 1/100 dilution and MUC2: Lum2-3 at a 1/100 dilution) diluted in PBS. The biotinylated peptides bound to the target are visualized using goat anti-biotin antibodies incubated for one hour at ambient temperature and then diluted in PBS at 1 μg/ml. A second incubation for one hour at ambient temperature is carried out in the presence of peroxidase-labeled anti-goat antibodies at 0.2 μg/ml diluted in PBS supplemented with 0.1% of Tween-20. […]

B1: peptide CPSIYPLLC (SEQ ID No. 2) coupled to biotin (peptide)
peptide: CPSIYPLLC
modifications: also: biotin coupled, site not given here, cyclic, closure type not given here
notes: The chemistry of the biotin coupling is not described; also called Cyclic C60
B1: the Kd was determined as 659 µM in test [1], 549 µM in test [2], 48 µM in test [3] and 85 µM in test [4]. Besides, in the test with MUC2 glycoprotein, the binding result is “no binding”.

The values above are taken from US20140127139A1 (GUERBET, published 2014).
